Data published in paper PMC12839305.

Target: T1, RVFV glycoprotein Gn head domain (154–469 aa) (Rift Valley fever virus), P21401
T1 chain: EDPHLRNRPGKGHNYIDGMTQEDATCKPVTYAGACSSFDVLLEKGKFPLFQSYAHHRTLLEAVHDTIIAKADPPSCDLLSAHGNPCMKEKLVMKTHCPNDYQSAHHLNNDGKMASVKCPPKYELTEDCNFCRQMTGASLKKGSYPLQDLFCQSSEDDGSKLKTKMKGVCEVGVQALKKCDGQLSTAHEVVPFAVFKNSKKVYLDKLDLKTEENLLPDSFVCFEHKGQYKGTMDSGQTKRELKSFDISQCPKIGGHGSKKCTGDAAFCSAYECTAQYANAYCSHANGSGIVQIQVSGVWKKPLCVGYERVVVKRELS
Experiment: BLI
Conditions: modification not given

Q: How did the Kd turn out when HVCLPSQFKCTNTNRCIPGIFRCNGQDNCGDGEDERDCPE [23-Fc] was run?
A: 260 nM
